Experimental data as given in PMC5552277.
pKd: −log10 of the molar value.

Key:
TFAM (WT) (human) [1] = molecular target: T1, TFAM (WT) (human) (UniProt Q00059); assay: DNase I footprinting; settings: Footprinting: 10 mM HEPES pH 7.5, 10 mM MgCl2, 10 mM CaCl2 (so in the source), 100 mM NaCl, 1 mM TCEP, 0.1 mg/mL BSA, 32°C; AFM buffer not in material
T1 sequence: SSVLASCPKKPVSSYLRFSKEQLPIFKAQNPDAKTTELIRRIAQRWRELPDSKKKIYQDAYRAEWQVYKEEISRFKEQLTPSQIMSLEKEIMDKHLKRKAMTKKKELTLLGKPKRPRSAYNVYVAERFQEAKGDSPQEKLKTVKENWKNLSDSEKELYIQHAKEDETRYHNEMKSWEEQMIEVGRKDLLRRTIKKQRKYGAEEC

[2] = molecular target: TFAM-CTΔ26;POLRMT;TFB2M del221-246 (human;human?;human?) (UniProt Q00059+O00411+Q9H5Q4); assay: DNase I footprinting; settings: Footprinting: 10 mM HEPES pH 7.5, 10 mM MgCl2, 10 mM CaCl2 (so in the source), 100 mM NaCl, 1 mM TCEP, 0.1 mg/mL BSA, 32°C; AFM buffer not in material
TFAM (WT) (human) [3] = assay: AFM in liquid, fractional DNA contour coverage; settings: effective free TFAM concentration; Footprinting: 10 mM HEPES pH 7.5, 10 mM MgCl2, 10 mM CaCl2 (so in the source), 100 mM NaCl, 1 mM TCEP, 0.1 mg/mL BSA, 32°C; AFM buffer not in material
TFAM-CTΔ26 (human) = assay: AFM in liquid, persistence length; settings: 100 nM CTΔ26 (33 nm) similar to 10 nM TFAM (30 nm); no looping enhancement; Footprinting: 10 mM HEPES pH 7.5, 10 mM MgCl2, 10 mM CaCl2 (so in the source), 100 mM NaCl, 1 mM TCEP, 0.1 mg/mL BSA, 32°C; AFM buffer not in material

Chain of TFAM-CTΔ26;POLRMT;TFB2M del221-246 (human;human?;human?) (O00411 42-1230, stated change not applied, chain 2 of 2): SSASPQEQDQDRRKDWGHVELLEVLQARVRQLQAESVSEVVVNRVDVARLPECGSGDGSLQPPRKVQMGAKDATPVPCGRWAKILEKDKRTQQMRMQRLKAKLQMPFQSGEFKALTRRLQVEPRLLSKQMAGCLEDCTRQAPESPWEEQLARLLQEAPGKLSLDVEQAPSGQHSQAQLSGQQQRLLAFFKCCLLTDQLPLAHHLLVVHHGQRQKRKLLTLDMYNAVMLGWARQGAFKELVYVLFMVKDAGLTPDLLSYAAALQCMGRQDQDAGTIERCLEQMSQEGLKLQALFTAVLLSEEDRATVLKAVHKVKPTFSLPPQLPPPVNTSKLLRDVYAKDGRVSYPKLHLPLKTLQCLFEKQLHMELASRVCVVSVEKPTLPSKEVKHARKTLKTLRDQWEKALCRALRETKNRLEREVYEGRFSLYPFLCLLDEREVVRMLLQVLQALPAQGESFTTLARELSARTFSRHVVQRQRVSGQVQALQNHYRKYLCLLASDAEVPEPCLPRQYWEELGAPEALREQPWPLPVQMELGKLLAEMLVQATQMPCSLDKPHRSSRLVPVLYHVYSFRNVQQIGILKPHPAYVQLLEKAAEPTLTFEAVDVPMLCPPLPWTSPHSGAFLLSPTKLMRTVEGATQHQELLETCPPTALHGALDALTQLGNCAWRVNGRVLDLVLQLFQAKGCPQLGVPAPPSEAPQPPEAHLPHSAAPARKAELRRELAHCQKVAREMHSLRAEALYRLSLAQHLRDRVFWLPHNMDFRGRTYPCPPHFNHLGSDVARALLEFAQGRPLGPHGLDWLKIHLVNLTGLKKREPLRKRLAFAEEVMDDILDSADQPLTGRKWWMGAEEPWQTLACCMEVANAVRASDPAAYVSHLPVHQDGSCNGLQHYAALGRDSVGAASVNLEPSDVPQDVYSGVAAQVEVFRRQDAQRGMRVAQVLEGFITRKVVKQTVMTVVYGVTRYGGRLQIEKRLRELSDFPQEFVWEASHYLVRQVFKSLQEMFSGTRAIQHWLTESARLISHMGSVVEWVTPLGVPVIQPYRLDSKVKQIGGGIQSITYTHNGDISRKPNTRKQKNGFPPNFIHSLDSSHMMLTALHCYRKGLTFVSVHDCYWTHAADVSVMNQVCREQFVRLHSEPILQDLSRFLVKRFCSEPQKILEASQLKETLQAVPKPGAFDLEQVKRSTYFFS
Chain of TFAM-CTΔ26;POLRMT;TFB2M del221-246 (human;human?;human?) (Q9H5Q4 20-396, stated change not applied, chain 3 of 2): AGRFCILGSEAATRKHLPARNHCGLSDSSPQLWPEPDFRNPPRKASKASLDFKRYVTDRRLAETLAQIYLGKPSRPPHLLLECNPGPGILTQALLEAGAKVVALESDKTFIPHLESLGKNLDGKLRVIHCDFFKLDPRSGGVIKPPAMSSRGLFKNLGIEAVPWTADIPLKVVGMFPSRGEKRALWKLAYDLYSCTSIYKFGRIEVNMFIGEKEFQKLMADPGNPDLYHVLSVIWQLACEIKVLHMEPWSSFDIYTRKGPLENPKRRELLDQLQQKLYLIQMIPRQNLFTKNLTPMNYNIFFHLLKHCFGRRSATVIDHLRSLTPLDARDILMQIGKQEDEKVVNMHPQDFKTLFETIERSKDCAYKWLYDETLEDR

Substance | binding (TFAM (WT) (human) [1]) | binding [2] | pKd (TFAM (WT) (human) [3]) | binding signal (fold weaker than WT TFAM) (TFAM-CTΔ26 (human))
ATTGCTTTGAGGAGGTAAGCTACATAAACTGTGGGGGGTGTCTTTGGGGTTTGGTTGGTTCGGGGTATGGGGTTAGCAGCGGTGTGTGTGTGCTGGGTAGGATGGGCGGGGGTTGTATTGATGAGATTAGTAGTATGGGAGTGGGAGGGGAAAATAATGTGTTAGTTGGGGGGTGACTGTTAAAAGTGCATACCGCCAAAAGATAAAATTTGAAATCTGGTTAGGCTGGTGTT (double strand) [dual promoter template (DPT-WT)] | binds | binds more weakly | – | –
puc18 control construct (AFM) | – | – | 6.70 | –
mtDNA construct (AFM) | – | – | 7.23 | 10
